B1: TPR t1 (parent)
chain: GACCAAUCUGCCCUCAGAGCUCGAGAACAUCUUCGGAUGCAGAGGAGGCAGGCUUCGGUGGCGCGAUAGCGCCAACGUCCUCAACCUCCAAUGCAUCCCACCACAUGAUGAUGCCUGAAGAGCCUUGGUUUUUUG

Variants of: B1
Experiment: polymerase ribozyme fitness, log enrichment relative to wild type (log ratio); higher = more active; in vitro selection for triplet polymerase activity
Outline: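 Mutant libraries for each subunit of a heterodimeric triplet polymerase ribozyme were made by PCR and then transcribed. Each library underwent one round of in vitro selection in triplicate: annealing with a biotinylated primer, the partner subunit and triplets, frozen incubation at −7 °C, gel excision of extended constructs, streptavidin-bead capture and RT-PCR. Input and output libraries were Illumina-sequenced, and only genotypes with ≥10 input reads and ≥1 read per output were kept. Fitness is the logarithm, base 2, of genotype enrichment over wild-type enrichment, computed from inverse-variance-weighted replicate averages.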

Row | Variant | polymerase ribozyme fitness (log ratio)
1 | C79A C88U | -1.33
2 | G77A C79U | 0.354
3 | A74U C99G U106A | -6.33
4 | U78C C102G | -5.35
5 | C73G U87A G122A | -4.5
6 | A75U G128A | -1.64
7 | C76U U92G | -3.28
8 | C73U U96A A108G C114A | -5.25
9 | U78C G113A G135U | -2.01
10 | C72G C88A C94U G120C | -1.57
11 | G77U C79A | -2.32
12 | G77A C79U G120U C123A | 0.335
13 | C72U C76U A121C | 1.1
14 | A75G U112A U131A | 1.22
15 | C72G U131A | -0.469
16 | C73U G120C | 1.2
17 | C72G C88G C115U | -3.24
18 | U78C U92C U96C U106A | -1.75
19 | U78C A84G G128A | -3.53
20 | G77A C89A | -1.73
21 | U78A U109C | -4.47

Row | Variant | polymerase ribozyme fitness (log ratio)
22 | C73U A100U G110A | -1.9
23 | A75G U129C | -0.465
24 | C72G G135U | -0.702
25 | C72G G135C | -1.17
26 | A75G C94A | -0.695
27 | C73U U87A C115A | -0.423
28 | C72U G113A | -1.48
29 | A75U C86U C88U | 0.294
30 | C72G C85U C86U | -2.99
31 | U78C U81A U87G C123G | 1.68
32 | G77A G120A G128C | -2.08
33 | U78C U112A G113A G122C U130C | -1.11
34 | C79A A100C | -2.29
35 | U78G C97U U116C A121U U131A | 0.0734
36 | C72U U78C G117U G122A U130G | -2.87
37 | C72A U78G | -1.71
38 | C73A G128A | -2.12
39 | C72G U78A U109A G128A | -5.92
40 | U78C A103G U109A C114A A119C | -6.28
41 | U78C A111G G117A | -2.7
42 | C72G C82G A105C | -4.16

Row | Variant | polymerase ribozyme fitness (log ratio)
43 | C73U G107A A108G G120A C124A | -3.12
44 | C72U C82G G113U | -4.51
45 | C76G U87G | -0.0658
46 | C73G G120C | 0.461
47 | C73G U96G C115G | -3.54
48 | C76A A84U U106A G120U | -2.24
49 | U78C C114A | -1.63
50 | A74G C94U | 0.88
51 | U78G C86G U112A C124G G135U | -1.2
52 | U78A G120A | 0.814
53 | A74C G120U | 0.00369
54 | A74C G120C | 1.48
55 | A74G G117U | -2.41
56 | C72G C73U C86G | -5.02
57 | C73G A90C | -2.17
58 | C72U C89A | -1.22
59 | A74U U116G U133G | -2.9
60 | C72G U132C | -0.428
61 | A74U C86U | -0.818
62 | C72G A121C | 1.48
63 | C76U C89G C98U | -4.45

Row | Variant | polymerase ribozyme fitness (log ratio)
64 | C72U U78G | -1.7
65 | U78G C86U | -0.465
66 | C72G U92A U126G U129A | -6.86
67 | C73U C94U G113U | -3.64
68 | C72G U133G | 0.34
69 | C72U C94G A95G C123U | -0.867
70 | A74U G117A U130C | -2.62
71 | C76G C101A | -3.2
72 | C73A G127U | -0.602
73 | C72A G120A | 1.06
74 | C72U G117C | -2.69
75 | A74U U87G | 0.353
76 | C73A U132A | 0.117
77 | U78A C94U C115A G127C | -1.41
78 | A74G C89G | -1.41
79 | U78G C94G | -0.85
80 | U78C U116G | -2.79
81 | C73A A111C | 0.669
82 | C72G G110A | -1.14
83 | C73A U78C A90C A91U U109G | -7.04
